Measurements from US20210070876A1 (LES LABORATOIRES SERVIER, published 2021).

Experiments:
[1] = target: T1, His-tagged cynomolgus CD73 ECD (cynomolgus monkey (Macaca fascicularis)); assay: SPR, mAb captured, His-tagged CD73 ECD injected
T1 chain: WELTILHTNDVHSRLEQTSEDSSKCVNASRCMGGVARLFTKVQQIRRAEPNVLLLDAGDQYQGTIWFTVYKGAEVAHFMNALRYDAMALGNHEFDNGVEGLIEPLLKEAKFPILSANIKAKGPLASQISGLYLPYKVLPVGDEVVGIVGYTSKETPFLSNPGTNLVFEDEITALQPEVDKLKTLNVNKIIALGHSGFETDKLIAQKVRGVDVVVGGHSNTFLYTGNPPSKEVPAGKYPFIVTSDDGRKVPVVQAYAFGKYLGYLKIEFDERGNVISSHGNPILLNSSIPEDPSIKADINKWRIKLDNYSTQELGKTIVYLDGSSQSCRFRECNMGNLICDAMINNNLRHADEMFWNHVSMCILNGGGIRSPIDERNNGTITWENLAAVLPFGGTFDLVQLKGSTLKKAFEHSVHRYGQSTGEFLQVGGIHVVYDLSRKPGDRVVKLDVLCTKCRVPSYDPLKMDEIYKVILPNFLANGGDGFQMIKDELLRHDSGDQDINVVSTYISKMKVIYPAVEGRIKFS
Procedure: Kinetic binding analysis of anti-CD73 mAbs and Fab fragments was performed by Surface Plasmon Resonance (SPR), using a Continuous Flow Microspotter (CFM, Wasatch Microfluidics, Salt Lake City, US) combined with an IBIS MX96 SPR instrument (IBIS Technologies, The Netherlands). CD73 cDNAs coding for the extracellular domains of human and cynomolgus CD73 were synthesized and each cloned into a vector containing a CMV promoter and either a C-terminal 6× histidine sequence (SEQ ID NO: 45) for His-tagged CD73 ECD, or a human IgG1 Fc sequence (AA P101-K330), resulting in fusion of IgG1 Fc C-terminally to the cloned CD73 ECD. The His-tagged and Fc-fusion constructs were transiently expressed using an ExpiCHO™ expression system and purified either by standard Ni-NTA chromatography or standard MabSelect™ SuRe™ procedures, respectively. Anti-CD73 Fab fragments were generated by digesting full-length IgG1 antibodies with GingisKHAN enzyme, using a kit provided by Genovis (Sweden). Affinities of Fab fragments were measured by capturing Fc-tagged antigens on a G-a-hu-IgG Fc SensEye® for 15 minutes using the CFM. After spotting, the SensEye® was positioned in the IBIS MX96 biosensor and immobilized antigens were fixed by SensEye FixIt kit. Kinetic analysis was performed by injecting monomeric Fab fragments at increasing concentrations from 0.8 nM to 300 nM. After each cycle of Fab fragment injection, the surface was regenerated by 10 mM glycine pH 3, 10% glycerol. Fab association was performed for 15 minutes and antigen dissociation was performed for 15 minutes. Affinities of full-length monoclonal antibodies (mAbs) were measured by capturing mAbs on a G-a-hu-IgG Fc SensEye® (Ssens BV, The Netherlands) for 15 minutes using a Continuous Flow Microspotter (CFM, Wasatch Microfluidics, Salt Lake City, US). After spotting, the SensEye was docked in the IBIS MX96 and spotted mAbs were fixed by SensEye FixIt kit (Ssens BV, The Netherlands). Kinetic analysis was performed by applying a kinetic titration series injecting increasing concentrations of His-tagged antigens from 0.16 nM to 10 nM as 2-fold dilutions. The surface was regenerated before the next cycle of cynomolgus antigen injections by 100 mM H₃PO₄, pH 3. MAb association was performed for 15 minutes and antigen dissociation was performed for 45 minutes.

mouse CD73 = target: T2, mouse CD73 (mouse, UniProt Q61503 29-549, limits assumed); assay: not described (statement in the methods of Example 22)
T2 construct: Only named in a sentence on cross-reactivity
T2 sequence (looked up): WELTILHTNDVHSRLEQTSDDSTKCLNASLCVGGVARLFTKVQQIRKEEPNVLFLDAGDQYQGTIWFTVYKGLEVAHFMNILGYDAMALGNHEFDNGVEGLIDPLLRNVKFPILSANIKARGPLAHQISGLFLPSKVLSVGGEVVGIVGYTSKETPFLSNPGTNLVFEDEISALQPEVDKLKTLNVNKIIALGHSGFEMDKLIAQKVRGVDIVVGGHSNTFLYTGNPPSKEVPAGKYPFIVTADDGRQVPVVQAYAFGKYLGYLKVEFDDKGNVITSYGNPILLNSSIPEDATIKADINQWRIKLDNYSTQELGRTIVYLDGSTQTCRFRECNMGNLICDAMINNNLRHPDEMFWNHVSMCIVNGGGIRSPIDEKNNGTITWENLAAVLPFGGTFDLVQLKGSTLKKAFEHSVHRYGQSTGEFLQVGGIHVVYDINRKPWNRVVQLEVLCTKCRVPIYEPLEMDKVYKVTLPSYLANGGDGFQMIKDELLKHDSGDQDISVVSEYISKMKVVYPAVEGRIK

B1: antibody 21127 (antibody, human IgG1, kappa, L234A L235A, V domains shown)
VH: EVQLVESGGGLVQPGRSLRLSCAASGFTFDDFAMHWVRQAPGKGLEWVSGISWNSGNIGYADSVKGRFTISRDNAKNSLYLQMNSLRAEDTALYYCAKDKSGSPYYYYGMDVWGQGTMVTVSS
VL: DIQMTQSPSSVSASVGDRVTITCRATQGISRRLAWYQQKPGKAPKLLIYAASSLQSGVPSRFSGSGSGTDFTLTISSLQPEDFATYYCQQANSFPLTFGGGTKVEIKR
notes: Fully human IgG1-LALA (L234A/L235A), kappa
- Kd [1]: 0.24 nM
- binding result (mouse CD73): no binding
